Tests used:
Conditions in all cases: both partners purified
[1] = target: T1, HER3 peptide #55 (15-mer of the overlapping peptide library) (Homo sapiens, UniProt P21860); assay: peptide or protein array; ELISA on plates coated with 1 µg/mL of 15-mer HER3 peptides with 11 residues overlap; antibody at 1 µg/mL overnight at 4 °C
T1 construct: 15-mer of human HER3 from a library of 15-mers with 11 residues overlap; Limits worked out from the printed core and the 11-residue overlap; source: synthetic peptide (JPT Peptide Technologies)
T1 chain: HCFGPNPNQCCHDEC

[2] = target: T2, HER3 peptide #54 (15-mer of the overlapping peptide library) (Homo sapiens, UniProt P21860); assay: as above
T2 construct: 15-mer of human HER3 from a library of 15-mers with 11 residues overlap; Limits worked out from the printed core and the 11-residue overlap; source: synthetic peptide (JPT Peptide Technologies)
T2 chain: QCNGHCFGPNPNQCC

[3] = target: T3, human HER3-Fc chimeric protein (Homo sapiens, UniProt P21860); assay: SPR; Biacore X100; HER3 Fc chimera coupled to a CM5 chip; antibodies as analytes, single-cycle kinetics, 25 °C; duplicate; KD = koff/kon
T3 construct: human HER3 (ErbB3) part of the bought Fc chimera; also called HER3 Fc chimera protein; Recombinant human HER3/HER3-Fc chimeric protein; source: bought: R&D Systems

[4] = target: T4, Recombinant human EGFR-Fc chimeric protein (Homo sapiens (Human)., UniProt P00533); assay: ELISA; plates coated with 1 µg/mL recombinant EGFR, ErbB2, HER3 or ErbB4 chimeric protein; purified antibodies at 10 µg/mL (Figure 3A) or in serial dilutions on human HER3 (Figure 3B)
T4 construct: human EGFR part of the bought Fc chimera; also called ErbB1; HER1; source: bought: R&D Systems

[5] = target: T5, Recombinant human ErbB4 chimeric protein (Homo sapiens (Human)., UniProt Q15303); assay: as above
T5 construct: human ErbB4 part of the bought chimeric protein; also called HER4; source: bought: R&D Systems

[6] = target: T6, Recombinant human ErbB2 chimeric protein (Homo sapiens (Human)., UniProt P04626); assay: as above
T6 construct: human ErbB2 part of the bought chimeric protein; also called HER2; source: bought: R&D Systems

Mouse HER3/HER3 (HisTag) = target: T7, Mouse HER3/HER3 (HisTag) (mouse, UniProt Q61526); assay: ELISA; plates coated with 1 µg/mL recombinant human, mouse, rat or rhesus HER3 (His tag); purified antibodies, dose-response
T7 construct: mouse HER3 (ErbB3), bought recombinant protein; probably the extracellular domain (surmise); also called recombinant mouse HER3; source: bought: Sinobiological

Rat HER3/HER3 (HisTag) = target: T8, Rat HER3/HER3 (HisTag) (rat, UniProt Q62799); assay: as above
T8 construct: rat HER3 (ErbB3), bought recombinant protein; probably the extracellular domain (surmise); also called recombinant rat HER3; source: bought: Sinobiological

[7] = target: T9, Rhesus HER3/HER3 (HisTag) (Macaca mulatta, UniProt H9ERZ8); assay: as above
T9 construct: rhesus HER3 (ErbB3), bought recombinant protein; probably the extracellular domain (surmise); also called recombinant rhesus HER3; source: bought: Sinobiological

T3 sequence (P21860 20-643, change not shown): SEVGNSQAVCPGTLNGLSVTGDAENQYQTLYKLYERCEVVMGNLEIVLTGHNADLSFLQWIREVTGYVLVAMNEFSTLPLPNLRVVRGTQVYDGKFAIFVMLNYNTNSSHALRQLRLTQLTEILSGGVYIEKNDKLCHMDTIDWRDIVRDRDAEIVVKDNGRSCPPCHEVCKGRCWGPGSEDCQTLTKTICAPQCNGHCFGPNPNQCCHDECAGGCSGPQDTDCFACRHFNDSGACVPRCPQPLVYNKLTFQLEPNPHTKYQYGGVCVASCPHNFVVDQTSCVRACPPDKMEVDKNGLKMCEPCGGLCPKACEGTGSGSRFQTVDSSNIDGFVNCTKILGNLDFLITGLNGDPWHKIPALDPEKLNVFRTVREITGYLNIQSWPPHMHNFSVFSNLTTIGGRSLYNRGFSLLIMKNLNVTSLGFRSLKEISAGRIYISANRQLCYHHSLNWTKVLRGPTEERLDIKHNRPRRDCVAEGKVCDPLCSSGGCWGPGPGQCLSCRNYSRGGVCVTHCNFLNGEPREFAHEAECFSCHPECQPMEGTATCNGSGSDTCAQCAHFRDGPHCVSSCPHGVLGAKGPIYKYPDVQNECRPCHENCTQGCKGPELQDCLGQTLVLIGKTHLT
T8 sequence (Q62799 20-643): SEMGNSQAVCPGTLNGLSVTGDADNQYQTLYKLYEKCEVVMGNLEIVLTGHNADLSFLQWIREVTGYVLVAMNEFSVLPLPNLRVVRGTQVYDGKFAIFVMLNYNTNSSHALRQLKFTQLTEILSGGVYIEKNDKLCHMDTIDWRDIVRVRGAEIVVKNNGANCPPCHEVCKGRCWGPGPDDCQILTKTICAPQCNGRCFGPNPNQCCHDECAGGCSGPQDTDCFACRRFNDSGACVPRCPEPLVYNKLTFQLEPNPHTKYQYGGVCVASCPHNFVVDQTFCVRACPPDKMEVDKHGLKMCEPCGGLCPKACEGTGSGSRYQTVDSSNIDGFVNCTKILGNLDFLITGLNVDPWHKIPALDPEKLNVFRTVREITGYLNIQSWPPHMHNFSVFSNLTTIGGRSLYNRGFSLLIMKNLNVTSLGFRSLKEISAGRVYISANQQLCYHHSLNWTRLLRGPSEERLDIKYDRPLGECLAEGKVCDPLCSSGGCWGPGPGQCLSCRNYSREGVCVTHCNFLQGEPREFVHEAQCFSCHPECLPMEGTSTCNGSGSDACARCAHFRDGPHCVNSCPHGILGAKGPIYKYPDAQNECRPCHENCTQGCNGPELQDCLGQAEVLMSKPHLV
T7 sequence (Q61526 20-641): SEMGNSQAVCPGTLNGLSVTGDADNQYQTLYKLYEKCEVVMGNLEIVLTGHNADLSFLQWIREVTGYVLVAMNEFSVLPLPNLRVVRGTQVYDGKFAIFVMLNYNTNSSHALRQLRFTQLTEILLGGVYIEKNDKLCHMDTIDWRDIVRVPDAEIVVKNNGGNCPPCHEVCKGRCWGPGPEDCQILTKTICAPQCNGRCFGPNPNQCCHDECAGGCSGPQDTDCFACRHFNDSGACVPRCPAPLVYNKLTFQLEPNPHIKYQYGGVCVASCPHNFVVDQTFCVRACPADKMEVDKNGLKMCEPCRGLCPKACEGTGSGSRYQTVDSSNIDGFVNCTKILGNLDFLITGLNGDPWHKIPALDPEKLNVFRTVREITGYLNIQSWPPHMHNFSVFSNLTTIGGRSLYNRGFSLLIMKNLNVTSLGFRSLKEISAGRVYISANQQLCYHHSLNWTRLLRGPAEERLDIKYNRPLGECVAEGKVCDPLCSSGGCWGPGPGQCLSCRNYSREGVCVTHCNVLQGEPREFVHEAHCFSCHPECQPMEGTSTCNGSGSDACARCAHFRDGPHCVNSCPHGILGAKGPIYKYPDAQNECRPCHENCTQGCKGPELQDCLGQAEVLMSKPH
T5 sequence (Q15303 26-651, change not shown): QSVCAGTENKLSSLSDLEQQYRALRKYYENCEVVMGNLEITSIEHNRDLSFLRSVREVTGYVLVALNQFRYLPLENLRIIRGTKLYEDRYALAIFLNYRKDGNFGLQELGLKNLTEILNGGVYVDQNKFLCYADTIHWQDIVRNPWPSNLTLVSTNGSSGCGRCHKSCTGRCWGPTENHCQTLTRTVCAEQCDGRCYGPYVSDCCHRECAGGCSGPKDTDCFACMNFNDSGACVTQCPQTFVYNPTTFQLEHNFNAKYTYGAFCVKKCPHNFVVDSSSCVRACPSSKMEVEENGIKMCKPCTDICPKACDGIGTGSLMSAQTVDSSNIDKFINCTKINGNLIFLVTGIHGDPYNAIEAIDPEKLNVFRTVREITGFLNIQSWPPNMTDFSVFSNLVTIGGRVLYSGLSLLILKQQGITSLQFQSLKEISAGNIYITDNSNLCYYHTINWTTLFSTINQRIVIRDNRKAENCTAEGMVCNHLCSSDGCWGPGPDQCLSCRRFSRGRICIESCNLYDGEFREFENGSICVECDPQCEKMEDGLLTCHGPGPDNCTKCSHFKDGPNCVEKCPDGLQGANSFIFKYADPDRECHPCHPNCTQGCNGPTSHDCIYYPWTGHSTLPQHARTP

B1: TK-hu A3-H1L1 humanized anti-HER3 monoclonal antibody (human IgG1, kappa) (antibody, V domains shown)
VH: QVTLRESGPALVKPTQTLTLTCTFSGFSLSTYGMGVGWIRQPPGKALEWLANIWWNDDKYYSSSLKTRLTISKDTSKNQVVLTMTNMDPVDTATYYCVQIANPYWYFDVWGQGTTVTVSS
VL: DIVMTQTPLSLSVTPGQPASISCKSSQSLLHSYGNTYLEWYLQKPGQSPQLLIYRVSNRFSGVPDRFSGSGSGTDFTLKISRVEAEDVGVYYCFQGSHVPFTFGQGTKLEIK
notes: humanized heavy chain variable region, variant H1 (germline CDR grafting of murine TK-A3); they are in PDB 9I1Q chain I (also J, K, L), which also holds CH1 of the Fab; human IgG1 constant region present in the expression vector; humanized light chain variant L1 in frame with the human kappa constant region; the whole light chain is in PDB 9I1Q chain F (also E, G, H); IgG1 kappa; also called …
For B1, the binding result [1] was “binds”, the binding result [2] was “binds” and the Kd [3] was 1.81 nM. For the same binder, the koff [3] was 0.000113 s⁻¹, the kon [3] was 62400 M⁻¹ s⁻¹ and the binding result [4] was “no binding (tested: 10 µg/mL)”. B1: no binding (tested: 10 µg/mL) [5]; no binding (tested: 10 µg/mL) [6]; binds (Mouse HER3/HER3 (HisTag)). B1: binds (Rat HER3/HER3 (HisTag)); binds [7].
